Test results from PMC3341351, “Down-Regulation of GABAA Receptor via Promiscuity with the Vasoactive Peptide Urotensin II Receptor. Potential Involvement in Astrocyte Plasticity” (PLoS ONE, 2012).

Experiments:
[1] = tested on: UT in human U87 glioma; experiment: Cell surface ELISA of UT in U87 glioma; assay type: cell-based; conditions: hUII 10^−8 M, 30 min, absence or presence of the UT C-terminus
Method: The human cell line from glioblastoma U87 was obtained from the American Type Culture Collection (LGC Standards, Molsheim, France). U87 cells were maintained in DMEM containing 10% FBS and 1% sodium pyruvate. NHA-Astrocytes (Lonza, Walkersville, MD, USA) were cultivated in DMEM culture medium supplemented with 2 mM glutamine, 5 mM HEPES, 1% non essential amino acids, 1% sodium pyruvate, B27, 25 ng/ml EGF, 1% of the antibiotic-antimycotic solution and 10% FBS. All cells were incubated at 37°C in a humidified atmosphere containing 5% CO2. Culture media were replaced every three days.
Cells were plated at 50 000 cells/well in 96-well plates coated with 0.1 mg/ml poly-L-ornithine (Sigma-Aldrich). […] Cells were fixed with 4% PFA in PBS for 5 min at RT, washed in PBS, and then permeabilized in 0.05% triton X100 (only for permeabilized cells) and non specific binding were blocked with PBS containing 1% FBS for 30 min at RT. […] The cells were washed four times with PBS, a colorimetric alkaline phosphatase substrate was added (SuperSignal ELISA, Thermo scientific, Fisher) and the resulting color reaction was measured using a Viktor multilabel plate reader (PerkinElmer, Courtaboeuf, France). Background absorbance from samples transfected with non-tagged receptors or from cells without first antibodies were systematically measured. […]

[2] = biological target: T1, GABAAR in cerebellar astrocytes (UT co-expressed) (Rattus norvegicus, UniProt P49684); experiment: Whole-cell patch-clamp of isoguvacine (Iso)-evoked depolarization/chloride current in cerebellar astrocytes co-cultured with granule neurons; assay type: cell-based
T1 construct: Astrocytes, recognized by strong GFAP staining show UT immunoreactivity; endogenous in cells; host or cells: primary rat (P7 Wistar) cerebellar astrocytes co-cultured with cerebellar granule neurons
T1 sequence (P49684 1-386): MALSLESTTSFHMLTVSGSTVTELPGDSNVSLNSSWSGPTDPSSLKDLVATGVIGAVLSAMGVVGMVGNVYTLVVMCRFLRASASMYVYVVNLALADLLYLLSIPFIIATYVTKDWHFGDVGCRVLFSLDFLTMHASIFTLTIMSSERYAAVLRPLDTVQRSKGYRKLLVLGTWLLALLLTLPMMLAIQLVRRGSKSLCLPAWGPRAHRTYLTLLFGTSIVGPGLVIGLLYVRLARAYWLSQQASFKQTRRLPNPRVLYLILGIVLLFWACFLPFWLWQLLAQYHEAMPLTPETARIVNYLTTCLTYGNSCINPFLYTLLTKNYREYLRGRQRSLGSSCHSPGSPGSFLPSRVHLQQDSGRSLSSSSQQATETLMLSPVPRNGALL
Method: Primary Cell Culture of astrocytes and astrocyte-neurone co-culture
Primary cultures of astrocytes were prepared as previously described. Briefly, cerebellum from 7-day-old (P7) Wistar rats were collected in DMEM/Ham-F12 (2∶1, v/v) culture medium supplemented with 2 mM glutamine, 1% insulin, 5 mM HEPES, 0.4% D(+)-glucose and 1% of the antibiotic-antimycotic solution. The tissues were disaggregated mechanically with a syringue equipped with a 1-mm gauge needle, and filtered through a 100-µm pore size mesh filter (Falcon, Becton Dickinson, Grenoble, France). Dissociated cells were resuspended in culture medium supplemented with 10% heat-inactivated FBS and seeded in 150-cm^2 culture flasks (Falcon) at a density of 20×10^6 cells/flask. Cells were incubated at 37°C in a humidified atmosphere (5% CO2) and the medium was changed twice a week. When cultures were confluent, the flasks were gently shaken on an orbital shaker at […] for 2 h. Dislodged cells were discarded and a second step of purification was performed at […] for 14–16 h. Remaining adhesive cells were collected by trypsination, centrifuged (800 g, 10 min) and plated in 150-cm^2 flasks. Suspended astrocytes were harvested and seeded in 24-well poly-L-lysine-coated plates. The purity of the cultures was previously assessed by counting the percentage of astrocytes immunostained with GFAP antibodies. The enriched cultures contained >99% astrocytes.
For astrocyte-neuron co-culture, granule cell cultures were prepared from cerebella of P7 Wistar rats as described previously. Isolated cells were plated on 14-mm culture dishes coated with poly-L-lysine (5 mM) at a density of 1.5×10^6 cells/dish and incubated at 37°C in a humidified atmosphere (5% CO2) for 1 to 10 days before use. Culture medium consisted of DMEM/Ham's F12 (75%/25%) supplemented with 10% FBS, 2 mM glutamine, 5 µg/ml insulin, 25 mM KCl and 1% of antibiotic-antimycotic solution. Co-cultures are obtained by seeding granule cells (1.5×10^6 cells/ml) on cerebellar astrocytes plated in 24-well plates after 12 hours. Co-cultures are maintained in the specific medium for neuron and incubated at 37°C in an humidified atmosphere (5% CO2) for several days.
The conventional whole-cell configuration of the patch-clamp technique was used to study the GABA-gated currents in astrocytes and granule neurons, UT stably transfected CHO, CHO-UT, and CHO transiently transfected with diverse variants of UT and GABAAR subunits. After 24-h transfection, cell culture coverslips were placed in a small chamber (1.5 ml) on a stage of a right microscope DMLFSA (Leica, Heidelberg, Germany) and superfused continuously with the following bath solution containing (in mM): NaCl, 150; KCl, 2.5; HEPES, 5; CaCl2, 2; MgCl2, 1; glucose, 10 (pH 7.4 adjusted with NaOH). The patch pipettes were fabricated from 1.5 mm (outer diameter) soft glass tubes on a two-step vertical pipette puller (List-Medical, L/M-3P-A, Darmstadt, Germany). […] ATP and GTP were added to the internal solution used to fill electrode just before recording. All recordings were obtained at RT with cells voltage-clamped at −70 mV. The GABAA receptor agonist isoguvacine was prepared in the extracellular solution and was applied to cells by pneumatic pressure ejection. To prevent desenzitization, isoguvacine was more often ejected during 5 s at 2-min intervals. ATP, GTP, or guanosine 5′-O-(2-thiodiphosphate) (GDPβS) were administered through the patch pipette solution. We investigated the effect of competitive inhibition of GDP-GTP exchange by including GDPβS in the pipette solution (in addition to the normal amount of GTP). For GDPβS and the KIC, immediately following patch rupture, GABA current recordings were performed and the experiment was commenced after an equilibration period of 15 min. […]

Row | Substance | UT levels at the cell surface, U87 [1] | Direct current activated ([2]; UII 10^−8 M, in some cells) | Recovery of the GABAAR current inhibition during washout ([2]; astrocytes)
1 | ETPDCFWKYCV (disulfide) [hUII, human urotensin II, synthesized by solid phase methodology] | remained unchanged |  | 
2 | UII: Urotensin II, species not stated at that place (rUII in astrocytes, hUII in CHO and human cells) |  | activated a small inward current | hardly recovered during washout
